Here are results for one molecule from US20030108554A1 (published 2003).

For test [1], the target named is T1, GIP130c with deletion of the N terminal 240-residues (human, UniProt Q4L180 241-1128).
T1 sequence: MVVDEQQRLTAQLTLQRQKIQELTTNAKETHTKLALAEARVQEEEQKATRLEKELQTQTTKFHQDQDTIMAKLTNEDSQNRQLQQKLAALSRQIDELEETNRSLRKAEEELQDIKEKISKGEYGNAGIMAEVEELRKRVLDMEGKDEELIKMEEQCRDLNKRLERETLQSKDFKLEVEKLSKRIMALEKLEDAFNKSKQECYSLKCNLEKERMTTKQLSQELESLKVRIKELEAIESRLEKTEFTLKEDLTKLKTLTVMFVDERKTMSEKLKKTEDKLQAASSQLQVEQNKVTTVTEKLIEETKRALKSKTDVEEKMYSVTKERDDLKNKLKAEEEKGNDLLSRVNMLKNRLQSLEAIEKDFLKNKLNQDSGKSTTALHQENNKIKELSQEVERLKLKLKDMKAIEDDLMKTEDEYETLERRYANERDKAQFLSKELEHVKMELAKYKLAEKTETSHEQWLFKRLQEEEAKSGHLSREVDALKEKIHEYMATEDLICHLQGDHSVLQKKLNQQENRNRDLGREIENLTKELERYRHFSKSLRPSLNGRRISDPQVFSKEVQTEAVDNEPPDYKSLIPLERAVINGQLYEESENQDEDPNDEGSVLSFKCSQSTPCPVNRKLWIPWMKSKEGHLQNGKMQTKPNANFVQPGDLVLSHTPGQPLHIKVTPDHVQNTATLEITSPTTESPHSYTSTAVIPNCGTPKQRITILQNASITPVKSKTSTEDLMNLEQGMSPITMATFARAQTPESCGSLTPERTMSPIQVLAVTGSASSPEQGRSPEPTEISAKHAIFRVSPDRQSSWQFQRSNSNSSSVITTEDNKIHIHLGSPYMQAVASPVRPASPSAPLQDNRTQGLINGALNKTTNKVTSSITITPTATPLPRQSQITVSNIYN
As to the kind of experiment: yeast two-hybrid.

The target of test [2] is T2, GIP130b with deletion of the N terminal 240-residues (human, UniProt Q4L180 241-1128).
T2 sequence: T1 sequence
Put plainly: yeast two-hybrid.

The next test deals with T3, DOC1-related protein (human, UniProt Q4L180 241-1128).
T3 sequence: T1 sequence
Put plainly: yeast two-hybrid.

The target in test [3] is T4, GIP90 (GPBP interacting protein 90 kDa) (human, UniProt Q4L180 1-749, limits assumed).
T4 construct: Full length; tested as GAL4 domain fusion in yeast two-hybrid/three-hybrid; fusion parts are not written as pieces
T4 sequence: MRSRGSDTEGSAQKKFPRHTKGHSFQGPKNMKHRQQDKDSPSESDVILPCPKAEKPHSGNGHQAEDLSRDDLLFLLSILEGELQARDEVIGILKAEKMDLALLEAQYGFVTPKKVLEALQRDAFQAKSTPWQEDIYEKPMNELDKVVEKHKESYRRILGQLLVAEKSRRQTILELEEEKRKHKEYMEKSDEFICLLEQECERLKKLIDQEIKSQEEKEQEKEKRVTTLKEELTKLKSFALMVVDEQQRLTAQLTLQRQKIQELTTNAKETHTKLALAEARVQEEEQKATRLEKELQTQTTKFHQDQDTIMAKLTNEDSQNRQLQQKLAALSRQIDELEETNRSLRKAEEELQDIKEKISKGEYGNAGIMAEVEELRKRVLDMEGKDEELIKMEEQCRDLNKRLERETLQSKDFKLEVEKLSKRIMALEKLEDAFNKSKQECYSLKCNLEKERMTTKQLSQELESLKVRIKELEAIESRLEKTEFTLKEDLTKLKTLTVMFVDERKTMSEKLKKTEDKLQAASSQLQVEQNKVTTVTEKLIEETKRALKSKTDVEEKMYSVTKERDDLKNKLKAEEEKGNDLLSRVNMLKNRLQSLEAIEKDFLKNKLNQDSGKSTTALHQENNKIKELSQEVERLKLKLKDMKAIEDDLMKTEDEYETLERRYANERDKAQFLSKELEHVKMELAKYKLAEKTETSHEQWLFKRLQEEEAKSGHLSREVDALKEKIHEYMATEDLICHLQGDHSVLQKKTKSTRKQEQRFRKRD
Put plainly: yeast two-hybrid, β-galactosidase colony lift. The protocol:
Deletion mutants were obtained using specific primers and PCR, followed by cloning of the resulting cDNAs in the pGBT9 and pGAD424 vectors. The assays were performed in SFY526 or HF7c Saccharomyces cerevisiae strains, with pGBT9 as GAL4 binding domain vector and pGAD424 as GAL4 activation domain vector, by the lift colony assay procedure. Briefly, the yeast cells were co-transformed with constructs of both binding domain and activation domain vectors, and the co-transformants were selected in medium deficient in both tryptophan and leucine. After five days of incubation at 30° C. the colonies were tested for the expression of β-galactosidase with X-Gal substrate (0.75 mg/ml). […] When the assays were performed with the HF7c strain, the interactions were assessed by the lift colony assay procedure and by growth in medium deficient in histidine, tryptophan and leucine. For yeast three-hybrid system, we used the pBRIDGE vector, which allows the conditional expression of a third protein apart from the usual GAL4 binding and activation domain-fusion proteins of the two-hybrid system. In this case, the expression of GPBP or I-20 or GIP90 was driven by Met25 promoter, active in absence of methionine. In these experiments, the transformed SFY526 cells were plated in medium deficient in tryptophan, leucine and methionine, and subjected to the colony lift assay after five days at 30° C. […]

B1: Goodpasture antigen binding protein (GPBP) (enzyme, UniProt Q9Y5P4 1-624, looked up)
chain: MSDNQSWNSSGSEEDPETESGPPVERCGVLSKWTNYIHGWQDRWVVLKNNALSYYKSEDETEYGCRGSICLSKAVITPHDFDECRFDISVNDSVWYLRAQDPDHRQQWIDAIEQHKTESGYGSESSLRRHGSMVSLVSGASGYSATSTSSFKKGHSLREKLAEMETFRDILCRQVDTLQKYFDACADAVSKDELQRDKVVEDDEDDFPTTRSDGDFLHSTNGNKEKLFPHVTPKGINGIDFKGEAITFKATTAGILATLSHCIELMVKREDSWQKRLDKETEKKRRTEEAYKNAMTELKKKSHFGGPDYEEGPNSLINEEEFFDAVEAALDRQDKIEEQSQSEKVRLHWPTSLPSGDAFSSVGTHRFVQKPYSRSSSMSSIDLVSASDDVHRFSSQVEEMVQNHMTYSLQDVGGDANWQLVVEEGEMKVYRREVEENGIVLDPLKATHAVKGVTGHEVCNYFWNVDVRNDWETTIENFHVVETLADNAIIIYQTHKRVWPASQRDVLYLSVIRKIPALTENDPETWIVCNFSVDHDSAPLNNRCVRAKINVAMICQTLVSPPEGNQEISRDNILCKITYVANVNPGGWAPASVLRAVAKREYPKFLKRFTSYVQEKTAGKPILF
notes: Protein kinase; Fusion parts are not written as pieces
As for B1, the binding result is on record as “no binding” in test [1], “no binding” in test [2], “no binding” in the test with DOC1-related protein and “binds” in test [3].
